Here are results for 3 molecules from PMC7652997, “Regulation of γ-Aminobutyrate (GABA) Utilization in Corynebacterium glutamicum by the PucR-Type Transcriptional Regulator GabR and by Alternative Nitrogen and Carbon Sources”.

Series [1] has as its target GabR (Cg0565), PucR-type transcriptional regulator of Corynebacterium glutamicum (Corynebacterium glutamicum ATCC 13032). Briefly: SEC; Tag-free GabR on Superdex 200 Increase 10/300 GL, 100 mM phosphate buffer pH 7.0 with 1 mM DTT, 0.75 mL/min; native size from a calibration curve (Kav versus log Mr) of standard proteins; apparent mass 420 kDa against a theoretical monomer mass of 55.75 kDa.

For series [2], the target named is T1, GabR (Corynebacterium glutamicum WT, UniProt Q8NT36 1-504).
T1 sequence: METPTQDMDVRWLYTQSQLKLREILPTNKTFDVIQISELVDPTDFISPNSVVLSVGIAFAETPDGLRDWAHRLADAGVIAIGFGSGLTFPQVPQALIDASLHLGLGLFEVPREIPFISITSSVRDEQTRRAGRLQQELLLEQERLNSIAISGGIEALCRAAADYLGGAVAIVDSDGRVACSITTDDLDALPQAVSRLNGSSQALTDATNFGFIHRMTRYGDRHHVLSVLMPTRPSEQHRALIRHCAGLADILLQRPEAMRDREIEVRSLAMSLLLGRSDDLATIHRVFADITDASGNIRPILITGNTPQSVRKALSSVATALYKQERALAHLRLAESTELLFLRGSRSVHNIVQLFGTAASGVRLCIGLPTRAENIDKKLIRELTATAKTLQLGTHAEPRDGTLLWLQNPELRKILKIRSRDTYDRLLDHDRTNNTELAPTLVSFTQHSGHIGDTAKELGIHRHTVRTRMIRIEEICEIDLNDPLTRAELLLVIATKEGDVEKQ
Briefly: EMSA; reasonable binding; 10 mM Tris-HCl pH 7.5, 50 mM NaCl, 5% glycerol, 0.005% Triton X-100, 20 min at room temperature; 100 ng DNA, 0-2.6 uM GabR monomer; native PAGE in TB buffer pH. The note with it: protein: recombinant; tags: N-terminal His10 removed with TEV protease; chain copies: 8; blunt.

Series [3] deals with T1, GabR. The experiment in a line: EMSA; complex band absent from negative control; 10 mM Tris-HCl pH 7.5, 50 mM NaCl, 5% glycerol, 0.005% Triton X-100, 20 min at room temperature; 100 ng DNA, 0-2.6 uM GabR monomer; native PAGE in TB buffer pH. The note with it: protein: recombinant; tags: N-terminal His10 removed with TEV protease; chain copies: 8; blunt.

“GabR (Cg0565), PucR-type transcriptional regulator of Corynebacterium glutamicum (natural protein)”: in series [1], the stoichiometry N was determined as 8.

B1: FS3 (dsDNA)
DNA 1: CTGTCAATTATCCATATGGGCGAAATATTGT
DNA 2: ACAATATTTCGCCCATATGGATAATTGACAG
Consider B1, for which the binding result with GabR [2] is “binds”.

B2: NC3 (dsDNA)
DNA 1: CACAGGAGGAACCGTGGAAGATCTCTCATAC
DNA 2: GTATGAGAGATCTTCCACGGTTCCTCCTGTG
As to B2, the binding result in the series with GabR [3] was “no binding”.
